According to the nanobody polyreactivity screen of Harvey et al. (2022):

Assay: yeast display, Sf9 membrane polyspecificity reagent, FACS + sequencing; frameworks hold sequencing errors
How it was run: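 After 36–48 hours of galactose induction, yeast (Saccharomyces cerevisiae BJ5465) displaying a synthetic nanobody library were stained at 4 °C for 1 hour with 10% biotinylated, detergent-solubilized Sf9 membrane reagent. Streptavidin microbeads enriched the stained cells before FACS sorting into low and high (top ~1%) gates on anti-HA and streptavidin fluorescence. Each clone's polyreactivity label reflects its gate of origin.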

| Sequence | polyreactivity (PSR sort gate) |
| --- | --- |
| QVQLVESGGGLVQAGGSLRLSCAASGLTFYRNAMGWYTQAPGKERELVATISSSGGSTYYADSVKGRFTISRDNEKNTVYLQMNSLKPEDTAVYYCNARYYSYGPGKTVRYRTGYYGYWGQGTQVTVSS | high polyreactivity |
| QVQLVESGGGLVQAGGSLRLSCAASGLTFYRYAMGWYRQARGKERELVAAISRRGGRTYSADSVKGRFTISRDNAKTTVYLQMNSLKPEDTAVYYCAAVTRDYRNDRRRQRYYYWGQGTQETVSS | high polyreactivity |
| QVQLVESGGGLVQAGGSLRLSCAASGLTFYSYAMGWYRQAPGKERELVADISWSGGSTYYADSVKGRFTISRDNAKNTVYLQMNSLQPEDTAVYYCAAEVFPGYDYWGQGTQVTVSS | low polyreactivity |
| QVQLVESGGGLVQAGGSLRLSCAASGLTFYTNAKGWYRQAPGKEREFVDAITSSGGRKYYADSVKGRFTISRDNAKNTVYLQMNSLKPEDTAVYYCAADARRPRIPEMYYWGQGTQVTVSS | high polyreactivity |
| QVQLVESGGGLVQAGGSLRLSCAASGLTFYVYAMGWYRQAPGKEREFVAAISWSGTSTSYADSVKGRFTISRDNAKNTVYLQMNSLKPEDTAVYYCAADVHTPALYTYAAGDYWGQGTQVTVSS | low polyreactivity |
| QVQLVESGGGLVQAGGSLRLSCAASGLTFYVYTMGWYSQAPGKEWELVAAISSGTTTHYADSVKGRFTISRDNAMNTVYLQMNSLKPEDTAVYYCGADLYHYSRDGYWGQGTQVTVSS | low polyreactivity |
| QVQLVESGGGLVQAGGSLRLSCAASGLTFYYNAMGSYRQAPGKERELVAAISRSAGSTYYADSVKGRFTISRDNAKNTVYLQMHSLKPEDTAVYYCAVGYVYTRKGRVQPVKYDYWGQGTQVTVSS | high polyreactivity |
| QVQLVESGGGLVQAGGSLRLSCAASGLTFYYNAMGWYRQAPGKERELVAAISRSGGSTYYADSVKGRFTISRDNAKNTVYLQMNSLKPEDTAVYYCAVGYVYTRKGRVQPVKYDYWGQGTQVTVSS | high polyreactivity |
| QVQLVESGGGLVQAGGSLRLSCAASGLTFYYYAMGWYRPAPGKERELVARISSGTSTYYADSVKGRFTISRDNAKNTVYLQMNSLKPEDTAVYYCNARRKLGSTHGPWGGLEYWGQGTQVTVSS | low polyreactivity |
| QVQLVESGGGLVQAGGSLRLSCAASGLTFYYYAMGWYRQAPGKEREIVAAISRSGGTTYYADSVKGRFTISRDTAKNTVYLQMNSLKPEDTAVYYCNAQWWRYWPSQVIFDYWGQGTQVTVSS | high polyreactivity |
| QVQLVESGGGLVQAGGSLRLSCAASGLTFYYYAMGWYRQAPGKERELVAAISRSGGSTYYADSVKGRFTISRDNAKNTVYLQMNSLKPEDTAVYYCAADYFTLYPYRGYDYWGQGTQVTVSS | low polyreactivity |
| QVQLVESGGGLVQAGGSLRLSCAASGLTFYYYAMGWYRQAPGKERELVAAMSIGGSTDYADSVKGRFTISRDNAKNTVYLQMNSLKPEDTAVYYCNVDDNSEYDYWGQGTQVTVSS | low polyreactivity |
| QVQLVESGGGLVQAGGSLRLSCAASGLTFYYYAMGWYRQAPGKQRELVAAINSSGGITFYADSVKGRFTISRDNAKNTFYLQMNSLKPEDTAVYYCASGGRSNRYGYWGQGTQVTVSS | low polyreactivity |
| QVQLVESGGGLVQAGGSLRLSCAASGLTFYYYVMGWYRQAPGKEREFVAAISRSGGSTYYADSVKGRFTISRDNAKNTVYLQMNSLKPEDTAVYYCASYTHDFGYKYWGQGTQVTVSS | high polyreactivity |
| QVQLVESGGGLVQAGGSLRLSCAASGLTFYYYVMGWYRQAPGKERELVAAISSSGGNTYYADSVKGRFTISRDNAKNTVYLQMNSLKPEDTAVYYCAAGQKRTLDNYWGQGTQVTVSS | high polyreactivity |
| QVQLVESGGGLVQAGGSLRLSCAASGLTINPNAMGWYRPAPGKERELVAAIDWSGGSTYCADSVKGRFTISRDNAKNTVYLQMNSLKPEDTAVYYSAADPPDRLFLYDYWGQGTQVTVSS | low polyreactivity |
| QVQLVESGGGLVQAGGSLRLSCAASGLTIQNNAMGWYRQAPGKERDLVAVITRIGGSTYYADSVKGRFTISRDYEKNTVYLQMNSLKPEDTAVYYCAAGYRTRRRLHVYWGQGTQVTVSS | high polyreactivity |
| QVQLVESGGGLVQAGGSLRLSCAASGLTITKNVMGWYRQAPGKERELVAVISRSGGSTYYADSVKGRFTISRDNAKNTVYLQMNSLKPEDTAVYYCNVKGPGPSRGNYWGQGTQVTVSS | low polyreactivity |
| QVQLVESGGGLVQAGGSLRLSCAASGLTITQYVMGWYRQAPGKERDLDAAISWGGTSTYYADSVKGRFTISRDHAKNTVYLQMNSLKPEDTAVYYCNARSVYLSFWGFDYWGQGTQVTVSS | low polyreactivity |
| QVQLVESGGGLVQAGGSLRLSCAASGLTIWRYAMGWYRQAPGKEREFVATISQNGGRTYYADSVKGRFTISRDNAKNTVYLQMNSLKPEDTAVYYCAADDWRWGYDYWGQGTQVTVSS | high polyreactivity |
| QVQLVESGGGLVQAGGSLRLSCAASGLTIWYYAMGWSRQAPGKEREFVAAITSRGGDTYYADSVKGRFTISRDNAKNTVYLQMNSLKPEDTAVYYCAVRPRYYGTYRYYYWGQGTQVTVSS | high polyreactivity |
| QVQLVESGGGLVQAGGSLRLSCAASGLTIYYYAMGWYRQAPGKERELVAAITWRGGSTYYADSVKGRFTISRDNAKNTVYLQMNSLKPEDTAVYYCAADPGPYGYYYWGQGTQVTVSS | low polyreactivity |

| Sequence | polyreactivity (PSR sort gate) |
| --- | --- |
| QVQLVESGGGLVQAGGSLRLSCAASGLTLAPNAMGWYRQAPGKERELVAAITRSGGDTYYADSVKGRFTISRDNAKNTVYLQMNSLKPEDTAVYYCAADYWFRYGTYEYWGQGTQVTVSS | high polyreactivity |
| QVQLVESGGGLVQAGGSLRLSCAASGLTLDKYAMGWYRQAPGKERELVAGINSRGGSTYADSVKGRFTISRDNAKNTVYLQMNSMKPEDTAVYYCAADGKVQGGYYWGQGTQVTVSS | high polyreactivity |
| QVQLVESGGGLVQAGGSLRLSCAASGLTLETIAMGGYRQAPGKERELVAGITYSGGTTYYADSVKGRFTISRDNAKNTVYLQMNSLKPEDTAVFYCAAHTRTSGHIYWGQGTQVTVSS | low polyreactivity |
| QVQLVESGGGLVQAGGSLRLSCAASGLTLGDNPMGWYRQAPGKERELVAAITSGGVNTYYADSVKGRFTISRDNAKNTVYLQMNSLKPEDTAVYYCAVPNRVYSQQYKFSVRYYYWGQGTQVTVSS | low polyreactivity |
| QVQLVESGGGLVQAGGSLRLSCAASGLTLYRYAMGWYRQAPGKERELVAGISWGGGSTYYADSVKGRFTISRDNAKNTVYLQMNSLKPEDTAVYYCAAGRLLYIPRYYYWGQGTQVTVSS | high polyreactivity |
| QVQLVESGGGLVQAGGSLRLSCAASGLTLYRYTMGWYRQAPGKERELVAGISRGGSTYYADSVKGRFTISRDNAKNTVYLQMNSLKPEDTAVYYCAAYYGGHYYAYSYDYWGQGTQVTVSS | high polyreactivity |
| QVQLVESGGGLVQAGGSLRLSCAASGLTLYYNAMGWYRQAPGKERELVAAISGSGGNTYYADSVKGRFTISRDNAKNTVYLQMNSLKPEDTAVYYCAKVVRVSHRYYYWGQGTQVTVSS | high polyreactivity |
| QVQLVESGGGLVQAGGSLRLSCAASGLTSGYYAMGWYRQAPGKEREFVAAITWRSGSTYYADSVKGRFTISRDNAKNTVYLQMNSLKPEDTAVYYCAAVSVIYHGHNRSTYEYWGQGTQVTVSS | high polyreactivity |
| QVQLVESGGGLVQAGGSLRLSCAASGLTSNGYTMGWYRQAPGKERELVAAITGRDGSTYADSVKGRFTISRDNAKNTVYLQMNSLKPEHTAVYYCAARLWRYRRYDYWGQGTQVTVSS | high polyreactivity |
| QVQLVESGGGLVQAGGSLRLSCAASGNAMGWYRQAPGKERELVAAITRRVGSTYYADSVKGRFTISRDNAKNTVYLQMNSLKPEDTAVYYCAADNPSYNLWYGYWGQGTQVTVSS | low polyreactivity |
| QVQLVESGGGLVQAGGSLRLSCAASGNIFAWYAMGGYRQAPGKERELVADISSRGGSTYYADSVKGRFTISRDNAKNTVYLQMNSLKPEDTAVYYCAAVWYWTQDYDYWGQGTQVTVSS | low polyreactivity |
| QVQLVESGGGLVQAGGSLRLSCAASGNIFAYYAMGWYRQAPGKEREFVAAIRSSGVSTYYADSVKGRFTISRDNAKNTVYLQMNSLKPEDTAVYYCAADSITGGWLIVSPPFNYTYDYWGQGTQVTVSS | low polyreactivity |
| QVQLVESGGGLVQAGGSLRLSCAASGNIFAYYAMGWYRQAPGKEREFVAAIRSSGVSTYYADSVKGRFTISRDNAKNTVYLQMNSLKPEDTAVYYCAADSITGGWLIVSPPYNYTYDYWGQGTQVTVSS | low polyreactivity |
| QVQLVESGGGLVQAGGSLRLSCAASGNIFDLYAMGWYRQAPGKERELVAAITRSSSRTYYADSVKGRFTISRDNAKNTVYLQMNSLKPEDTAVYYCRAKQVNRFDYWGQGTKVTVSS | high polyreactivity |
| QVQLVESGGGLVQAGGSLRLSCAASGNIFDTYVMGWYRQAPGKERELVAAITSDGGTYYADSVKGRFTSSRDNATNPVYLQMNSRQPEDTAVYYCAADTYYYPIHDYWGQGTQVTVSS | low polyreactivity |
| QVQLVESGGGLVQAGGSLRLSCAASGNIFDVYAMGWYRQAPGKERELVADIDRGGTTYADSVKGRFTISRDNAKNTVYLQMNSLKPVDTAVYYCAADYVQGFGFYYQWLYDYWGQGTQVTVSS | low polyreactivity |
| QVQLVESGGGLVQAGGSLRLSCAASGNIFGGNAMGWYRQAPGKERELVAAMTRGGSTYYADSVKGRFTISRDNAKNTVYLQMNSLKPEATAVYYCAKSYRLRSDYDYWGQGTQVTVSS | low polyreactivity |
| QVQLVESGGGLVQAGGSLRLSCAASGNIFGVYAMGWYRQAPGKERELVAAIRYSTVSTYYADSVKGRFTISRDNAKNTVYLQMNSLKPEDTAVYYCAAQRRRYLPGHYYYWGQGTQVTVSS | high polyreactivity |
| QVQLVESGGGLVQAGGSLRLSCAASGNIFGWNDMGWCRQAPGKEWEVVAAISWTGDSTYDADSVKGRFTISRDNAKNTVYLQMNSLKPEDTAVYYGAADTPTLQYLTPRSEFDAWGQGTQVTVSS | low polyreactivity |
| QVQLVESGGGLVQAGGSLRLSCAASGNIFGWYAMGWYRQAPGKERELVAAISSGGRTNYADSVKGRFTISRDNAKNTVYLQMNSLKPEDTAVYYCAAERKLYGLYDYWGQGTQVTVSS | low polyreactivity |
| QVQLVESGGGLVQAGGSLRLSCAASGNIFGYYAMGWYRQAPGKERELVAAIRTRGGRTYYADSVKGRFTISRDNAKTTVYLQMNSLKPEDTAVYYGAARSIAGFWRYDYWGQGTQVTVSS | high polyreactivity |
